One block for each substance: values may come before it.
What was measured:
[1] = biological target: wild-type POT1-TPP1 complex (POT1-TPP1N) (human) (UniProt Q9NUX5)
[2] = biological target: wild-type POT1-TPP1 complex (POT1-TPP1N) (human) (UniProt Q9NUX5); remark: listed apart in the source
[3] = biological target: POT1-TPP1 E169K complex (wild-type POT1 with TPP1N E169K) (human) (UniProt Q9NUX5)
[4] = biological target: POT1-TPP1 E215K complex (wild-type POT1 with TPP1N E215K) (human) (UniProt Q9NUX5)
[5] = biological target: GFP-TPP1-OB-LacI (human); assay: LacI-LacO tethering assay (co-localisation of GFP and mCherry foci); GFP-TPP1-OB-LacI tethered to a single LacO array on chromosome 1 of U2OS 2-6-3 cells, co-transfected with mCherry-hTERT and hTR; fixed cells, intrinsic fluorescence; fraction of nuclei with co-localised foci (n = 3, 117-176 nuclei total)
[6] = biological target: POT1-TPP1 E169K complex (wild-type POT1 with TPP1N E169K) (human) (UniProt Q9NUX5); remark: listed apart in the source
[7] = biological target: POT1-TPP1 E215K complex (wild-type POT1 with TPP1N E215K) (human) (UniProt Q9NUX5); remark: listed apart in the source

Chain of GFP-TPP1-OB-LacI (human) (Q96AP0 whole entry): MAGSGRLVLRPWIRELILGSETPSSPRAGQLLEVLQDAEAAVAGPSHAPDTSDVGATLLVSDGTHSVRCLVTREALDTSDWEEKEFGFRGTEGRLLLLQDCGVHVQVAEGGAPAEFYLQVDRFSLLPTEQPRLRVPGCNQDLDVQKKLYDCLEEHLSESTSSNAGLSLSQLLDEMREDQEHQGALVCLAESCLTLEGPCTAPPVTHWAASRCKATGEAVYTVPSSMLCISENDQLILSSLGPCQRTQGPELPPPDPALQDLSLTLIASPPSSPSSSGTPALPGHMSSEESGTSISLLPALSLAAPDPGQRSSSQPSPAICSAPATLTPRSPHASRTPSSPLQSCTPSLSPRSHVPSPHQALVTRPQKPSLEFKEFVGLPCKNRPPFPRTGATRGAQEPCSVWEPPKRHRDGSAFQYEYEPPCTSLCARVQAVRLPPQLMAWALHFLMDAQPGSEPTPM

Substance: hTERT R87E;R91E;K94E telomerase (ZZ-TEV-3xFlag-hTERT with hTR) (from UniProt O14746 1-1132) (enzyme)
RAP stimulation by PT % of WT (direct telomerase activity assay) [1]: 61 % of WT

Substance: hTERT R72E telomerase (ZZ-TEV-3xFlag-hTERT R72E with hTR) (from UniProt O14746 1-1132) (enzyme)
RAP stimulation by PT % of WT (direct telomerase activity assay) [1]: 91 % of WT

Substance: hTERT V144M telomerase (ZZ-TEV-3xFlag-hTERT V144M with hTR) (from UniProt O14746 1-1132) (enzyme)
RAP stimulation by PT % of WT (direct telomerase activity assay) [1]: 44 % of WT | POT1-TPP1 RAP stimulation compared to wild-type telomerase (direct telomerase activity assay) [2]: 61% | RAP stimulation by POT1-TPP1 relative to wild-type telomerase with wild-type POT1-TPP1 (direct telomerase activity assay) [3]: 28% | RAP stimulation by POT1-TPP1 relative to wild-type telomerase with wild-type POT1-TPP1 (direct telomerase activity assay) [4]: 37%

Substance: mCherry-hTERT K78E (with hTR) (from UniProt O14746 1-1132) (enzyme)
fraction of TPP1-OB-fold domain foci showing telomerase signal [5]: 55%

Substance: hTERT K78A telomerase (ZZ-TEV-3xFlag-hTERT K78A with hTR) (from UniProt O14746 1-1132) (enzyme)
RAP stimulation by PT % of WT (direct telomerase activity assay) [1]: 88 % of WT

Substance: hTERT K78E;R132E telomerase (ZZ-TEV-3xFlag-hTERT with hTR) (from UniProt O14746 1-1132) (enzyme)
RAP stimulation by POT1-TPP1 relative to wild-type telomerase and wild-type TPP1 (direct telomerase activity assay) [6]: < 23% | RAP stimulation by POT1-TPP1 relative to wild-type telomerase and wild-type TPP1 (direct telomerase activity assay) [7]: < 23% | RAP stimulation by PT % of WT (direct telomerase activity assay) [1]: 18 % of WT

Substance: hTERT R120E telomerase (ZZ-TEV-3xFlag-hTERT R120E with hTR) (from UniProt O14746 1-1132) (enzyme)
RAP stimulation by PT % of WT (direct telomerase activity assay) [1]: 55 % of WT

Substance: hTERT K78E telomerase (ZZ-TEV-3xFlag-hTERT K78E with hTR) (from UniProt O14746 1-1132) (enzyme)
RAP stimulation by POT1-TPP1 relative to wild-type telomerase and wild-type TPP1 (direct telomerase activity assay) [6]: < 24% | RAP stimulation by POT1-TPP1 relative to wild-type telomerase and wild-type TPP1 (direct telomerase activity assay) [7]: 98% | RAP stimulation by PT % of WT (direct telomerase activity assay) [1]: 68 % of WT

Substance: hTERT R132E telomerase (ZZ-TEV-3xFlag-hTERT R132E with hTR) (from UniProt O14746 1-1132) (enzyme)
RAP stimulation by POT1-TPP1 relative to wild-type telomerase and wild-type TPP1 (direct telomerase activity assay) [6]: < 23% | RAP stimulation by POT1-TPP1 relative to wild-type telomerase and wild-type TPP1 (direct telomerase activity assay) [7]: < 23% | RAP stimulation by PT % of WT (direct telomerase activity assay) [1]: 24 % of WT

Continued, values first:

fraction of nuclei with co-localisation [5]: 90%
Substance: mCherry-hTERT wild type (with hTR) (from UniProt O14746 1-1132) (enzyme)

fraction of TPP1-OB-fold domain foci showing telomerase signal [5]: 30%
Substance: mCherry-hTERT R132E (with hTR) (from UniProt O14746 1-1132) (enzyme)

RAP stimulation by POT1-TPP1 relative to wild-type telomerase and wild-type TPP1 (direct telomerase activity assay) [6]: < 24% | RAP stimulation by POT1-TPP1 relative to wild-type telomerase and wild-type TPP1 (direct telomerase activity assay) [7]: 78%
Substance: wild-type telomerase (ZZ-TEV-3xFlag-hTERT with hTR) (from UniProt O14746 1-1132) (enzyme)

RAP stimulation by PT % of WT (direct telomerase activity assay) [1]: 103 % of WT
Substance: hTERT R142E telomerase (ZZ-TEV-3xFlag-hTERT R142E with hTR) (from UniProt O14746 1-1132) (enzyme)

RAP stimulation by PT % of WT (direct telomerase activity assay) [1]: 38 % of WT
Substance: hTERT K78E;R120E telomerase (ZZ-TEV-3xFlag-hTERT with hTR) (from UniProt O14746 1-1132) (enzyme)
